Eleven molecules from patent publication US20190040142A1 (Genentech, published 2019) can be followed below.

T1: Rat KLB (limits assumed)
T1 construct: also called rat Klotho-beta
T1 single chain: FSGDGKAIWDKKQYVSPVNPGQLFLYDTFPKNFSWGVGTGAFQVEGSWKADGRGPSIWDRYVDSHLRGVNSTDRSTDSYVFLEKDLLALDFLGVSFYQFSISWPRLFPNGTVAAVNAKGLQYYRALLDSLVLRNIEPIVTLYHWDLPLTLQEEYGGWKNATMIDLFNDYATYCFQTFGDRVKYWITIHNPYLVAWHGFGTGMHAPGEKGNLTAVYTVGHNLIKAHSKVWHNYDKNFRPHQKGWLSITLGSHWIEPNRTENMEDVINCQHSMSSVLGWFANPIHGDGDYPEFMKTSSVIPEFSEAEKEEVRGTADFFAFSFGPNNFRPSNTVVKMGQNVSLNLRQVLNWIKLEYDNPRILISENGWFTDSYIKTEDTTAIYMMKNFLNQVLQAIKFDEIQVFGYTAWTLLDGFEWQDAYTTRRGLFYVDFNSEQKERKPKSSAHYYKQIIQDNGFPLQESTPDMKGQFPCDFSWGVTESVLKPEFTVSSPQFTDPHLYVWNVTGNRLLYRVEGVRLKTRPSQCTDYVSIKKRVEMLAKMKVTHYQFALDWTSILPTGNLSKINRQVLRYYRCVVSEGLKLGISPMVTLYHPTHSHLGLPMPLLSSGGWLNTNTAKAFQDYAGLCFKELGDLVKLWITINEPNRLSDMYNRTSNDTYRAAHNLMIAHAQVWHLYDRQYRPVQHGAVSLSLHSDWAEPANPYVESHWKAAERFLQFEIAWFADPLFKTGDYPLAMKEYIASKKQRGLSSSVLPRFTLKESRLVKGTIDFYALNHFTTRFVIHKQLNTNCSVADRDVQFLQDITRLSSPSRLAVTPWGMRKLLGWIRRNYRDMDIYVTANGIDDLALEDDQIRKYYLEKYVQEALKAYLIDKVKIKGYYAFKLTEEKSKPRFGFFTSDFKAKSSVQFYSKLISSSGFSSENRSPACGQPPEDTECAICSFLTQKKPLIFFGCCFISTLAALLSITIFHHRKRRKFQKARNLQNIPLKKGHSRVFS

B1: anti-KLB monoclonal antibody 4H7 (antibody, IgG1, V domains shown)
VH: QVQLQQSGPELVKPGASVKLSCKASGYTFTNYDINWVRQRPGQGLEWIGWIYPRDGSAKYNAKFKGKATLTVDTSSSTAYMELHSLTSEDSAVYFCARRPLYYGSTHWYFDVWGTGTTVTVSS
VL: DIVLTQSPASLAVSLGQRATISCKASQSVDYDGDSYMNWYQQKPGQPPKLLIYAASNLKSGIPARFSGSGSGTDFTLNIHPVEEEDAATYYCQQSNEDPRTFGGGTRLEIK
notes: hybridoma mouse IgG in the first screen; also called clone 4H7; 4H7 IgG
B2: bispecific anti-KLB antibody 23B3/28B7 (IgG format) (bispecific antibody, V domains shown)
VH 1: EVQLQESGPGLVKPSQSLSLTCSVTGYSITSGYYWNWIRQFPGNKLEWMGYIRYDGNSNYNPFLKNRVSITRDTSKNQFFLKLNSVTTEDTATYYCTRKGAYYSSFDALDYWGQGTSVTVSS
VL 1: DIVMTQSPSSMYASLGERVTISCKASQDIRSYLSWFQQKPGKSPKTLIYRANRLVDGVPSRFSGSGSGQDYSLTITSLEFGDVGLYYCLQYDEFPLTFGAGTKLKIE
VH 2: EVQLQQSGPELVQPGTSVKISCEASGYTFTDYYINWVKQSRGKSLEWIGDINPNNGDTTYNQKFKAKATLTVDRSSNTAYMELRSLTSEDSVVYYCARRFYSSPFDSWGQGTTLTVSS
VL 2: DIVMTQSPSSLAVSVGEKVTLSCKSGQSLLYSRNQKNYLAWYQQKPGQSPKLLISWASTRESGVPDRFTGSGSGTDFTLTISSVKTEDLAVYHCQQYYSYPYTFGGGTRLEIK
B3: anti-KLB monoclonal antibody 23B3 (antibody, V domains shown)
VH: B2 VH 1
VL: B2 VL 1
notes: also called clone 23B3
B4: anti-KLB monoclonal antibody 28B7 (antibody, IgG1, V domains shown)
VH: B2 VH 2
VL: B2 VL 2
notes: also called clone 28B7; 28B7 IgG
B5: bispecific anti-KLB antibody 4H7/28B7 (IgG format) (bispecific antibody, V domains shown)
VH 1: B1 VH
VL 1: B1 VL
VH 2: B2 VH 2
VL 2: B2 VL 2
B6: anti-KLB antibody clone 4H7 in tri-chain IgG format (antibody)
chain 1: DIVLTQSPASLAVSLGQRATISCKASQSVDYDGDSYMNWYQQKPGQPPKLLIYAASNLKSGIPARFSGSGSGTDFTLNIHPVEEEDAATYYCQQSNEDPRTFGGGTRLEIKRGGGGSGGGGSGGGGSGGGGSQVQLQQSGPELVKPGASVKLSCKASGYTFTNYDINWVRQRPGQGLEWIGWIYPRDGSAKYNAKFKGKATLTVDTSSSTAYMELHSLTSEDSAVYFCARRPLYYGSTHWYFDVWGTGTTVTVSS
chain 2: not shown
notes: VL-linker-VH-CH1-CH2-CH3 (VLfH) plus a separate CL domain disulfide-bonded to CH1; also called 4H7 tcIgG; 4H7 tcIgG1; not shown: human IgG1 heavy chain constant region (CH1-hinge-CH2-CH3); monospecific tcIgG were made by c
B7: bispecific anti-KLB antibody 12B8/2C12 (IgG format) (bispecific antibody, V domains shown)
VH 1: QIQLVQSGPELKKPGETAKISCKASGYAFSNYGMNWVKQAPGKDLKWMGWIDTDTGEATYTDDFKGRFVFSLETSASTAYLQINNLKNEDMATYFCAREEYGLFGFPYWGHGTLVTVSA
VL 1: DIQMTQSSSSFSVSLGDRVTITCKASEDIYNRLAWYQQKPGSAPRLLISAATSLETGVPSRFSGSGSGKDYTLSITSLQTEDVATYYCQQYWSNPLTFGAGTKLELK
VH 2: EVQLQQSGPGLVKPSQSLSLTCSVTGYSITSGYYWTWIRQFPGNKLEWMGYIKYDGGNYYNPSLRNRISITRDTSKNHFFLKFYSVTAEDTATYFCARGDYYASPYGAMDSWGQGTSVTVSS
VL 2: DIVMTQSPSSLSASLGDTITITCHASQDIDVWLSWYQQKPGNVPQLLISKSSILHTGVPSRFSGGGSGTGFTLTISSLQPEDIATYYCQQGLSYPFTFGSGTKLKIK
B8: bispecific anti-KLB antibody 2C12/28B7 (IgG format) (bispecific antibody, V domains shown)
VH 1: B7 VH 2
VL 1: B7 VL 2
VH 2: B2 VH 2
VL 2: B2 VL 2
B9: anti-KLB monoclonal antibody 2C12 (antibody, human IgG1, V domains shown)
VH: B7 VH 2
VL: B7 VL 2
notes: hybridoma mouse IgG in the first screen; also called clone 2C12; 2C12 (human IgG1)
B10: anti-KLB monoclonal antibody 12B8 (antibody, V domains shown)
VH: B7 VH 1
VL: B7 VL 1
notes: Mouse hybridoma antibody; tested as hybridoma supernatant, or recombinantly as mouse IgG2a or human IgG1, depending on the assay; also called clone 12B8; parental antibody 12B8
B11: bispecific anti-KLB antibody 12B8/23B3 (IgG format) (bispecific antibody, V domains shown)
VH 1: B7 VH 1
VL 1: B7 VL 1
VH 2: B2 VH 1
VL 2: B2 VL 1

Assay [1] addresses T1, Rat KLB. Description: FACS, HEK293T cells expressing human/rat KLB chimeric proteins; summary table of + and - by epitope bin. (In general: A flow cytometer gives signals particle by particle.)
In assay [2] the target is T2, recombinant human KLB (soluble protein) (human, UniProt Q86Z14 53-997, limits assumed).
T2 construct: also called monomeric human KLB; recombinant KLB
Description: SPR (BIAcore T200), antibody captured on Protein A chip, monomeric human KLB as analyte, 25 C, 1:1 Langmuir fit. The method, then: (§1) For binding affinity determination of tcIgG and traditional IgG, surface plasmon resonance (SPR) measurements using a BIAcore T200 and ProteinA sensor chip was used and dilutions of monomeric human KLB as analyte were injected over the immobilized tcIgG or traditional IgG at 25° C. to determine monovalent affinities. Association rates (kon) and dissociation rates (koff) were calculated using a simple one-to-one Langmuir binding model. The equilibrium dissociation constant (Kd) was calculated as the ratio koff/kon.
(In general: SPR reads the build-up and loss of mass on a sensor chip optically.)

Assay [3] has as its target T2, recombinant human KLB (soluble protein). The assay is described as follows: SPR, Biacore T200, antibody captured on Protein A chip, monomeric human KLB as analyte, 25 C; mean ± range of two experiments. The method, then: as §1
For assay [4], the target named is human KLB/FGFR1c receptor complex on cells (human, UniProt Q86Z14 53-1044; P11362 22-822). Description: cell-based or functional assay.
For assay [5], the target named is B9. The assay is described as follows: biolayer interferometry (Octet), anti-human Fc sensor -> human Ab1 -> no hKLB -> mouse Ab2. The method, then: Epitope binning experiments (FIGS. 11A-11B) were performed by BioLayer Inferometry in 8-channel or 16-channel mode using anti-mouse Fc or anti-human Fc capture biosensors on the Octet Red384 system (Pall Life Sciences, Menlo Park, Calif.). […] Epitope binning with anti-human Fc capture biosensors was done similarly.

Assay [6] addresses T3, human KLB expressed on cells (human, UniProt Q86Z14 53-1044).
T3 construct: also called hKLB; Klotho-beta
The assay is described as follows: FACS, HEK293T cells expressing human/rat KLB chimeric proteins; summary table of + and - by epitope bin.

The target of assay [7] is T1, Rat KLB. Description: flow cytometry, HEK293T cells transiently expressing the construct, anti-human IgG-Alexa 488.
Assay [8] deals with T2, recombinant human KLB (soluble protein). Description: SPR, Biacore T200, antibody captured on Protein A chip, monomeric human KLB as analyte, 25 C; mean of two experiments. The method, then:
as §1

For assay [9], the target named is T3, human KLB expressed on cells. The assay is described as follows: flow cytometry, HEK293T cells transiently expressing the construct, antibody at 2 µg/ml, anti-human IgG-Alexa 488.

For orientation: kon means the second-order rate constant of association. What is called Kd is the free concentration of one partner at which half of the binding sites on the other are occupied at equilibrium, for simple one-to-one binding. The koff is the first-order rate constant of dissociation. Consider B1, for which, in assay [1], the binding result was “no binding (tested: not given)”. For the same molecule, the kon in [2] is 571000 M⁻¹ s⁻¹. In [3], the Kd worked out at 0.78 nM, the koff amounted to 0.000444 s⁻¹ and the kon amounted to 571000 M⁻¹ s⁻¹.

Consider B2, for which, in assay [4], the “EC50 (nM), luciferase-based reporter assay” value (shortened to “EC50 (nM)”) stood at 0.63 nM.

As to B3, the binding result was “no binding” in assay [5], “binds” in [6] and “no binding (tested: 2 µg/ml (not on the sheet))” in assay [7].

As to B4, the binding result in assay [1] is given as “no binding (tested: not given)”. For the same molecule, the kon in assay [8] came to 104000 M⁻¹ s⁻¹. Moreover, the kon in assay [2] amounted to 104000 M⁻¹ s⁻¹. Moreover, in assay [3], the Kd worked out at 2.65 nM and the off-rate (koff) was determined as 0.000276 s⁻¹.

For the molecule B5, the “EC50 (nM)” value in assay [4] came to 1.21 nM.

B6: the on-rate (kon) in [2] is 332000 M⁻¹ s⁻¹. For the same molecule, in assay [3], the equilibrium dissociation constant (Kd) was 1.29 nM, the koff came to 0.000427 s⁻¹ and the kon is 332000 M⁻¹ s⁻¹.

Turning to B7, the “EC50 (nM)” value in assay [4] is 1.36 nM.

With B8, the “EC50 (nM)” value in assay [4] stood at 0.58 nM.

As to B9, the binding result in assay [6] was “binds”; in assay [7], “no binding (tested: 2 µg/ml (not on the sheet))”.

Consider B10, for which the binding result is “no binding (tested: 2 µg/ml (not on the sheet))” in [7] and “binds” in [9].

On to B11, for which the “EC50 (nM)” value in assay [4] turned out to be 0.95 nM.
